Experimental data taken from patent US20120220489A1.
One block for each substance: values may come before it.

Experiments:
[1] = target: Histone H3-BSA 2.7x peptide-protein conjugate (bovine); assay: RPA standard curve, assay 1, LOD back-calculated from one-site fit
[2] = target: ERK1 (p44) inactive (GST tagged), human, Invitrogen PV 3312 (human) (UniProt P27361); assay: RPA, competition: +free H3 peptide 100 nM
[3] = target: pRb-BSA 1x peptide-protein conjugate (bovine); assay: RPA, competition: +free H3 peptide 100 nM
Chain of pRb-BSA 1x peptide-protein conjugate (bovine) (P02769 25-607 limits assumed): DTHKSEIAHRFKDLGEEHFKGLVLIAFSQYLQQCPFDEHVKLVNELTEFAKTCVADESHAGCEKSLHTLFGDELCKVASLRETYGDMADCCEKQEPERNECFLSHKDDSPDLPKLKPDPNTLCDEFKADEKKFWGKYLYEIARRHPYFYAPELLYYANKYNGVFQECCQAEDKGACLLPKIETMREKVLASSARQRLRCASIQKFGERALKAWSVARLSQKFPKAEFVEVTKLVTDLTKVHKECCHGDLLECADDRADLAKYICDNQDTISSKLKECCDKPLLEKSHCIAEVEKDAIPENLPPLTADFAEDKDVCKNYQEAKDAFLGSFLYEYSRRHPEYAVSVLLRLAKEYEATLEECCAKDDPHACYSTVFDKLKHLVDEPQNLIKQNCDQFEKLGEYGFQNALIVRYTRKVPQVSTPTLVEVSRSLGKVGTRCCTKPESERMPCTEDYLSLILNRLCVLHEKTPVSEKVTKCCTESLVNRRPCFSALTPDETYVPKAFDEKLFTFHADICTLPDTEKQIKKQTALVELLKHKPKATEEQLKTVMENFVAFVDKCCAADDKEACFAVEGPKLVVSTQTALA

[4] = target: Erk1-BSA 2.7x peptide-protein conjugate (human; bovine); assay: RPA, competition: +free H3 peptide 100 nM
Chain of Erk1-BSA 2.7x peptide-protein conjugate (human; bovine) (peptide, as listed by the source limits assumed, chain 1 of 2): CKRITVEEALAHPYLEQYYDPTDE
Chain of Erk1-BSA 2.7x peptide-protein conjugate (human; bovine) (P02769 25-607 limits assumed, chain 2 of 2): as the sequence (P02769 25-607 limits assumed) above

[5] = target: ERK1 (p44) active (GST tagged), human, Invitrogen PV 3311 (human) (UniProt P27361); assay: RPA, competition: +free H3 peptide 100 nM
[6] = target: Histone H3 recombinant protein, human, Upstate 14-494 (human) (UniProt P68431); assay: RPA, competition: +free H3 peptide 100 nM
[7] = target: ERK1 (p44), human, Cell Signaling Technology 7416 (human) (UniProt P27361); assay: RPA, competition: +free H3 peptide 100 nM
[8] = target: ERK1 (p42) active (phospho), human, Active Motif 31 152 (human) (UniProt P27361); assay: RPA, competition: +free H3 peptide 100 nM
[9] = target: pErk1/2-BSA 2.7x peptide-protein conjugate (human; bovine); assay: RPA, competition: +free H3 peptide 100 nM
Chain of pErk1/2-BSA 2.7x peptide-protein conjugate (human; bovine) (P02769 25-607 limits assumed): as above

[10] = target: pRb recombinant protein, human, Active Motif 31 128 (human) (UniProt P06400); assay: RPA, competition: +free H3 peptide 100 nM
Chain of UniProt P06400 (P06400 whole entry): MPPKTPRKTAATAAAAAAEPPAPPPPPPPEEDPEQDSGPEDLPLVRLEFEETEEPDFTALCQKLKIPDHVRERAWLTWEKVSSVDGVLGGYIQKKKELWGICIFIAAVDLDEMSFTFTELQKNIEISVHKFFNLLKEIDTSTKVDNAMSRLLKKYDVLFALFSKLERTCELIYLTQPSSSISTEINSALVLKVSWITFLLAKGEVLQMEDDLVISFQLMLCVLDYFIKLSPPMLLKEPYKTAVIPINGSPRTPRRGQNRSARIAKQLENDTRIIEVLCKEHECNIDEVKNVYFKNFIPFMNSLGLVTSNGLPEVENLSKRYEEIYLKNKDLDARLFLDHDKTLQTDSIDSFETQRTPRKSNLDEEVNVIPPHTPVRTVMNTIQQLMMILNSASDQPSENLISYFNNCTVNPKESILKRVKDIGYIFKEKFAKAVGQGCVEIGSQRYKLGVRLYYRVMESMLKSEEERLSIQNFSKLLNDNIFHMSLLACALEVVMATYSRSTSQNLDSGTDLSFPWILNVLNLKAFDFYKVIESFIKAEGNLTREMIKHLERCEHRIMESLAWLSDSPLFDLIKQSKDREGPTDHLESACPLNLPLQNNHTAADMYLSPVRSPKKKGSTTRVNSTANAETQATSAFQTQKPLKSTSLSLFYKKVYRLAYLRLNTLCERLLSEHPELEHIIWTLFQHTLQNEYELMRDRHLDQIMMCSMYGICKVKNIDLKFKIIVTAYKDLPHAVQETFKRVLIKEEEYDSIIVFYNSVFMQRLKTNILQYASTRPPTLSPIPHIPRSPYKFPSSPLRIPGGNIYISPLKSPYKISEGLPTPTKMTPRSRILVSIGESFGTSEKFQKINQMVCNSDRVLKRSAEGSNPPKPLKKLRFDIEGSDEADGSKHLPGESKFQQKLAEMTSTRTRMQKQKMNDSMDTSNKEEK

[11] = target: Histone H3-BSA 2.7x peptide-protein conjugate (bovine); assay: RPA, competition: +free H3 peptide 100 nM
[12] = target: ERK1 (p44) inactive (GST tagged), human, Invitrogen PV 3312 (human) (UniProt P27361); assay: RPA, competition: +free H3 peptide 10000 nM
[13] = target: pRb-BSA 1x peptide-protein conjugate (bovine); assay: RPA, competition: +free H3 peptide 10000 nM
[14] = target: Erk1-BSA 2.7x peptide-protein conjugate (human; bovine); assay: RPA, competition: +free H3 peptide 10000 nM
[15] = target: ERK1 (p44) active (GST tagged), human, Invitrogen PV 3311 (human) (UniProt P27361); assay: RPA, competition: +free H3 peptide 10000 nM
[16] = target: Histone H3 recombinant protein, human, Upstate 14-494 (human) (UniProt P68431); assay: RPA, competition: +free H3 peptide 10000 nM
[17] = target: ERK2 (p42), human, Biosource PHO 0104 (human) (UniProt P28482); assay: RPA, competition: +free H3 peptide 10000 nM
Chain of UniProt P28482 (P28482 2-360 limits assumed): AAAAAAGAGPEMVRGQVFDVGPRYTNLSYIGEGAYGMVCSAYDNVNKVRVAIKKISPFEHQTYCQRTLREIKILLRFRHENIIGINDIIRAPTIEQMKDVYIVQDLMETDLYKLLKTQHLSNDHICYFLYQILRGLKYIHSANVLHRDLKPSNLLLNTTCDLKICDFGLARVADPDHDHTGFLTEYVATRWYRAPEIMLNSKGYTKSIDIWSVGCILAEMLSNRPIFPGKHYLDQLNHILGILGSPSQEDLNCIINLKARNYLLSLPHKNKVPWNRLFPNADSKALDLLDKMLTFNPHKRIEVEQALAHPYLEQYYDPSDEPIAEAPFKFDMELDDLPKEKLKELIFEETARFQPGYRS

[18] = target: ERK1 (p44), human, Cell Signaling Technology 7416 (human) (UniProt P27361); assay: RPA, competition: +free H3 peptide 10000 nM
[19] = target: ERK1 (p42) active (phospho), human, Active Motif 31 152 (human) (UniProt P27361); assay: RPA, competition: +free H3 peptide 10000 nM
[20] = target: pErk1/2-BSA 2.7x peptide-protein conjugate (human; bovine); assay: RPA, competition: +free H3 peptide 10000 nM
[21] = target: Histone H3 recombinant protein, calf, Roche 11 034 758 001 (calf) (UniProt P68432); assay: RPA, competition: +free H3 peptide 10000 nM
[22] = target: pRb recombinant protein, human, Active Motif 31 128 (human) (UniProt P06400); assay: RPA, competition: +free H3 peptide 10000 nM
[23] = target: Histone H3-BSA 2.7x peptide-protein conjugate (bovine); assay: RPA, competition: +free H3 peptide 10000 nM
[24] = target: Erk1-BSA 2.7x peptide-protein conjugate (human; bovine); assay: RPA standard curve, assay 1, LOD back-calculated from one-site fit
[25] = target: ERK1 (p44) inactive (GST tagged), human, Invitrogen PV 3312 (human) (UniProt P27361); assay: RPA, competition: +free Erk1 peptide 1000 nM
[26] = target: pRb-BSA 1x peptide-protein conjugate (bovine); assay: RPA, competition: +free Erk1 peptide 1000 nM
[27] = target: Erk1-BSA 2.7x peptide-protein conjugate (human; bovine); assay: RPA, competition: +free Erk1 peptide 1000 nM
[28] = target: ERK1 (p44) active (GST tagged), human, Invitrogen PV 3311 (human) (UniProt P27361); assay: RPA, competition: +free Erk1 peptide 1000 nM
[29] = target: Histone H3 recombinant protein, human, Upstate 14-494 (human) (UniProt P68431); assay: RPA, competition: +free Erk1 peptide 1000 nM
[30] = target: ERK2 (p42), human, Biosource PHO 0104 (human) (UniProt P28482); assay: RPA, competition: +free Erk1 peptide 1000 nM
[31] = target: ERK1 (p44), human, Cell Signaling Technology 7416 (human) (UniProt P27361); assay: RPA, competition: +free Erk1 peptide 1000 nM
[32] = target: ERK1 (p42) active (phospho), human, Active Motif 31 152 (human) (UniProt P27361); assay: RPA, competition: +free Erk1 peptide 1000 nM
[33] = target: pErk1/2-BSA 2.7x peptide-protein conjugate (human; bovine); assay: RPA, competition: +free Erk1 peptide 1000 nM
[34] = target: Histone H3 recombinant protein, calf, Roche 11 034 758 001 (calf) (UniProt P68432); assay: RPA, competition: +free Erk1 peptide 1000 nM
[35] = target: pRb recombinant protein, human, Active Motif 31 128 (human) (UniProt P06400); assay: RPA, competition: +free Erk1 peptide 1000 nM
[36] = target: Histone H3-BSA 2.7x peptide-protein conjugate (bovine); assay: RPA, competition: +free Erk1 peptide 1000 nM
[37] = target: pErk1/2-BSA 2.7x peptide-protein conjugate (human; bovine); assay: RPA standard curve, assay 1, LOD back-calculated from one-site fit

Chain of Histone H3-BSA 2.7x peptide-protein conjugate (bovine) (P02769 25-607 limits assumed): as the sequence (P02769 25-607 limits assumed) above

LOD [1]: 0.104 nM | maximum standard curve signal [2]: 0.02 RFI | maximum standard curve signal [3]: < 0.01 RFI | maximum standard curve signal [4]: 0.01 RFI | maximum standard curve signal [5]: < 0.01 RFI | maximum standard curve signal [6]: 4.45 RFI | maximum standard curve signal [7]: < 0.01 RFI | maximum standard curve signal [8]: < 0.01 RFI | maximum standard curve signal [9]: < 0.01 RFI | maximum standard curve signal [10]: < 0.01 RFI | maximum standard curve signal [11]: 3.33 RFI | maximum standard curve signal [12]: < 0.01 RFI | maximum standard curve signal [13]: < 0.01 RFI | maximum standard curve signal [14]: 0.01 RFI | maximum standard curve signal [15]: < 0.01 RFI | maximum standard curve signal [16]: 0.07 RFI | maximum standard curve signal [17]: < 0.01 RFI | maximum standard curve signal [18]: < 0.01 RFI | maximum standard curve signal [19]: < 0.01 RFI | maximum standard curve signal [20]: 0.02 RFI | maximum standard curve signal [21]: < 0.01 RFI | maximum standard curve signal [22]: < 0.01 RFI | maximum standard curve signal [23]: 0.19 RFI
Substance: Histone H3 antibody, Abcam ab1791

LOD [24]: 0.045 nM | maximum standard curve signal [25]: 0.02 RFI | maximum standard curve signal [26]: 0.01 RFI | maximum standard curve signal [27]: 0.14 RFI | maximum standard curve signal [28]: 0.02 RFI | maximum standard curve signal [29]: 0.01 RFI | maximum standard curve signal [30]: 0.01 RFI | maximum standard curve signal [31]: < 0.01 RFI | maximum standard curve signal [32]: 0.01 RFI | maximum standard curve signal [33]: 0.01 RFI | maximum standard curve signal [34]: 0.01 RFI | maximum standard curve signal [35]: 0.01 RFI | maximum standard curve signal [36]: 0.02 RFI
Substance: p44/42 MAPK (Erk1/2) antibody, Biosource 44-654G

LOD [37]: 0.028 nM
Substance: p44/42 MAPK phospho (pERK1/2) Thr202/Tyr204 antibody, Cell Signaling Technology #9101
